From patent US20040001839A1, “Multimers - isolated molecules comprising epitopes containing sulfated moieties, antibodies to such epitopes, and uses thereof” (priority 2000, published 2004)

Tests used:
[1] = test system: KG-1 cells; assay: FACS of Y1-biotag and Y1-biotag/streptavidin-PE tetramers on KG-1 cells; assay type: binding, human
Method: In a preferred method, tetramers are formed via a biotin/streptavidin association. A novel fermentation construct that is capable of being enzymatically labeled with biotin (referred to herein as Y1-biotag or Y1-B) was created. A sequence that is a substrate for the BirA enzyme was added at the Y1 C-terminus. The BirA enzyme adds a biotin to the lysine residue within the sequence. Y1-biotag was expressed in E. coli. The inclusion body material was isolated and refolded. The purity of the folded protein was >95%, and >100 mg were obtained from a 1-L culture (small-scale, non-optimized conditions). […] Nevertheless, this construct offered the advantage of specific biotinylation in which the binding site of the molecule remains intact. Further, each molecule is labeled by only one biotin—each molecule receives one biotin on the carboxyl end.
Limiting labeling to one biotin/molecule in a desired location enabled production of tetramers with streptavidin. The tetramers were formed by incubating Y1-B with steptavidin-PE.
Y1-biotag tetramers with streptavidin-PE appear to specifically bind to one of the Y1-reactive cell lines (KG-1). The differential of this reaction, from background binding, was very high, and offered high sensitivity to detect low amounts of receptor. […] Monocytes and granulocytes were positive to a small extent. […]

[2] = test system: KG-1 cells; assay: Binding competition experiments on KG-1 cells (monomer, dimer, Y1 IgG); design: species or system human; conditions: as analyzed by radioreceptor assay, ELISA or FACS
From the text: To compare the binding of the scFv monomer (also referred to as CONY1) with the Y1 dimer, binding competition experiments were done in vitro on KG-1 cells. In addition, these experiments also compared the binding of the full Y1 IgG to the scFv Y1 monomers. To perform this study, a Y1 IgG was labeled with biotin.

[3] = test system: Jurkat cells; assay: FACS binding of Y1-cys monomer and dimer to Jurkat cells; design: species or system human
From the text: The present invention is directed to Y1 and Y17 multimers prepared by any known method in the art. A preferred method of forming multimers, and especially dimers, employs the use of cysteine residues to form disulfide bonds between two monomers. In this embodiment, dimers are formed by adding a cysteine on the carboxyl terminus of the scFvs (referred to as Y1-cys scFv or Y1 dimer) in order to facilitate dimer formation. After the DNA construct was made (See Example 2D and 6D) and used for transfection, Y1 dimers were expressed in a production vector and refolded in vitro. The protein was analyzed by SDS-PAGE, HPLC, and FACS. […] Thus, the process was repeated and this time, two-liter fermentation batches of the antibodies were run. After expressing Y1-cys in E. coli strain BL21, refolding was done in arginine. Following refolding, the protein was dialyzed and purified by Q-sepharose and gel filtration (sephadex 75). Two peaks were detected by SDS-PAGE (non-reduced) and by gel filtration. The peaks were collected separately and analyzed by FACS. Monomer and dimer binding to Jurkat cells was checked by FACS. […] Conditions for dimer refolding were determined, and material comprising >90% dimers (mg quantities) was produced after subsequent dialysis, chromatographic, and gel filtration steps. […]

[4] = test system: platelet-rich-plasma (PRP); assay: Ristocetin-induced aggregation of platelet-rich plasma (scFv); assay type: cell-based, human; conditions: scFv 38 μg/ml, 100% = ristocetin treatment
Method: The effect of Y1 (scFv) on aggregation of platelet-rich-plasma (PRP) was tested at various concentrations of Y1. PRP was pre-incubated with Y1 scFv, Y17 scFv, or a control sTM-1cFv for 4 min at 37° C. before being exposed to ristocetin, an inducer of platelet agglutination and aggregation. A reversible inhibitory effect was observed when scFv was added to PRP prior to the addition of ristocetin, and it was dose dependent.
Blood was collected into a tube containing 3.8% sodium citrate. Platelet-rich plasma was prepared by centrifugation at 250×g for 10 minutes.
(§1) For platelet aggregation studies, platelet rich plasma (PRP) and washed platelets were stirred at 500 rpm at 37° C. in whole blood Lumiaggregometer (Chronolog, Havertown, Pa.). The difference in light transmission through the platelet suspension and suspending medium was taken as 100% aggregation. The effect of Y1 on platelet aggregation was evaluated by addition of different concentration of Y1 before the addition of agonist, and the effect was recorded for four minutes.

[5] = test system: washed platelets; assay: Ristocetin-induced agglutination of washed platelets (scFv); assay type: cell-based, human
Method: Aggregation is determined in PRP due to the presence of thrombotic agents, while agglutination is determined in washed platelets. The effect of Y1 (scFv) on agglutination of washed platelets was tested at various concentrations of Y1. Platelets were pre-incubated with Y1 scFv, Y17 scFv, Y16-scFv, or a control TM-1 scFv for 4 min at 37° C. before being exposed to ristocetin, an inducer of platelet agglutination and aggregation.
Platelet concentrate in acid-citrate-dextrose (ACD) was obtained from a blood bank, platelets were isolated, washed once in buffer containing ACD and saline in a ratio of 1:7. The platelets were centrifuged at 800 g for 10 min after each wash and were resuspended in Tyrodes solution (2 mM MgCl2, 137 mM NaCl, 2.68 mM KCl, 3 mM NaH2PO4, 0.1% glucose, 5 mM Hepes and 0.35% albumin, pH 7.35) and count the number of cells.
as §1
The effect of Y17-scFv on vWF-dependent agglutination of platelets was tested at different concentrations of Y17.

B1: Y1 tetramers: tetramers formed by incubating Y1-B with streptavidin-PE (protein)
scFv 1: MEVQLVESGGGVVRPGGSLRLSCAASGFTFDDYGMSWVRQAPGKGLEWVSGINWNGGSTGYADSVKGRFTISRDNAKNSLYLQMNSLRAEDTAVYYCARMRAPVIWGQGTLVTVSRGGGGSGGGGSGGGGSSELTQDPAVSVALGQTVRITCQGDSLRSYYASWYQQKPGQAPVLVIYGKNNRPSGIPDRFSGSSSGNTASLTITGAQAEDEADYYCNSRDSSGNHVVFGGGTKLTVLGGGGLNDIFEAQKIEWHE
scFv 2: B1 scFv 1
scFv 3: B1 scFv 1
scFv 4: B1 scFv 1
modifications: left off: another chain or arm of the molecule; large carriers; small tags and cut ends
notes: tetramers formed by incubating Y1-B with streptavidin-PE
[1]; FACS
  reactivity in positive cell lines such as KG-1: at least 100 fold
[1]; complexes with Streptavidin-PE, FACS on KG-1 cells
  increase of the sensitivity of the binding: at least 100 fold

B2: Y1 dimer: disulfide dimer of Y1 scFv with a cysteine added on the carboxyl terminus (protein)
scFv 1: MEVQLVESGGGVVRPGGSLRLSCAASGFTFDDYGMSWVRQAPGKGLEWVSGINWNGGSTGYADSVKGRFTISRDNAKNSLYLQMNSLRAEDTAVYYCARMRAPVIWGQGTLVTVSRGGGGSGGGGSGGGGSSELTQDPAVSVALGQTVRITCQGDSLRSYYASWYQQKPGQAPVLVIYGKNNRPSGIPDRFSGSSSGNTASLTITGAQAEDEADYYCNSRDSSGNHVVFGGGTKLTVLGGGGCKAK
scFv 2: B2 scFv 1
[2]
  binding relative to the Y1 scFv monomer: at least 20 fold
[3]
  amount needed relative to the monomeric antibody for the same level of staining: 1/100

B3: Y17 scFv: second scFv clone binding platelets and myelogenous leukemia cell lines; SEQ ID NO:203, CDR3 SEQ ID NO:20 (protein, listed as Homo sapiens)
scFv: MKYLLPTAAAGLLLLAAQPAMAEVQLVESGGGVVRPGGSLRLSCAASGFTFDDYGMSWVRQAPGKGLEWVSGINWNGGSTGYADSVKGRFTISRDNAKNSLYLQMNSLRAEDTAVYYCARLTHPYFWGQGTLVTVSRGGGGSGGGGSGGGGSSELTQDPAVSVALGQTVRITCQGDSLRSYYASWYQQKPGQAPVLVIYGKNNRPSGIPDRFSGSSSGNTASLTITGAQAEDEADYYCNSRDSSGNHVVFGGGTKLTVLGAAAEQKLISEEDLNGAA
[4]
  % aggregation: 100%
[5]; final concentration of 10, 25 or 50 μg/ml, washed platelets, ristocetin
  inhibition of vWF-dependent platelet agglutination: did not inhibit
[5]; scFv 25 μg/ml, 100% = ristocetin treatment
  % agglutination: 85%
[5]; scFv 25 μg/ml, ristocetin-induced agglutination
  % inhibition: 15%
